Test in all cases: BLI, antibody on AHC sensor, antigen as analyte
In general terms: Biolayer interferometry detects binding as a change in optical thickness at a sensor tip.

Assay [1] concerns the target T1, recombinant human tumor antigen HER2 (ERBB2, ACRO systems, HE2-H5212) (human, UniProt P04626 23-652).
T1 construct: Bought
How it is done:
(§1) Antibodies were first captured onto an anti-human IgG Fc coated AHC biosensor (Anti-hIgG Fc, Sartorius, 18-5060). Antibodies were diluted to 5 μg/mL and 1.5 nm protein was coupled to the AHC sensor surface in 0.02% PBST.
(§2) After the sensor captures the antibodies, it binds and dissociates with different concentrations of analytes to obtain the KD value of the interaction. The experimental parameters are as follows: Baseline1: 60 s, Loading: 240 s, Baseline2: 180 s, Association: 240 s, Dissociation: 600 s, High sensitivity kinetics: 2 Hz. Kinetic constants were derived based on the rate equation for 1:1 Langmuir binding to obtain equilibrium dissociation constants (KD). The Data Analysis HT 12 software (Sartorius, 50-5029) was used to simultaneously fit binding and dissociation curves to calculate Kₒₙ and Koff. The affinity KD was calculated based on the below formula: KD=Koff/Kₒₙ.

The target of assay [2] is T2, recombinant human tumor antigen CEA (CEACAM-5/CD66e, ACRO systems, CE5-H5226) (human, UniProt P06731 35-685).
T2 construct: Bought
T2 sequence (looked up): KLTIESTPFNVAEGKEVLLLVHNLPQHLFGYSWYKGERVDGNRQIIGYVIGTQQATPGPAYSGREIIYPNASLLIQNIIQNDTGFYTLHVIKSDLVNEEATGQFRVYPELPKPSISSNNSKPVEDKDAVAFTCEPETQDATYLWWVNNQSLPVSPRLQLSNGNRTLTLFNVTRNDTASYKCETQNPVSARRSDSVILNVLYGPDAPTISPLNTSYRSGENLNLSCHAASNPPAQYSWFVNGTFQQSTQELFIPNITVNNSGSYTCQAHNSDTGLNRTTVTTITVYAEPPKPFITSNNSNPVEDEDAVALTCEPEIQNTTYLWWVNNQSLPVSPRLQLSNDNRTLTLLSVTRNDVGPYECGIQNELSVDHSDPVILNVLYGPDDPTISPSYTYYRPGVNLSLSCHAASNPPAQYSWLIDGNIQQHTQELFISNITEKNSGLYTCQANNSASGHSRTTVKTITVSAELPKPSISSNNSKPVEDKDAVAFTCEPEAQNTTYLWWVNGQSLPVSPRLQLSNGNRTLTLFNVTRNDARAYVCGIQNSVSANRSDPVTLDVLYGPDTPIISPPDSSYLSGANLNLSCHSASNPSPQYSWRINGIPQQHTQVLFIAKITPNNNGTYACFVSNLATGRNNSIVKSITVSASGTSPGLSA
How it is done:
as §1, §2

Assay [3] concerns the target T3, recombinant human protein CD3ε/δ (ACRO systems, CDD-H52W1) (human, UniProt P07766 23-126; P04234 22-105).
T3 construct: Bought heterodimer
The method, then:
as §1, §2

From patent US20240409635A1 (VIBRANT PHARMA, published 2024) come the findings set out here.

T3 sequence (P07766 23-126, stated change not applied, chain 1 of 2): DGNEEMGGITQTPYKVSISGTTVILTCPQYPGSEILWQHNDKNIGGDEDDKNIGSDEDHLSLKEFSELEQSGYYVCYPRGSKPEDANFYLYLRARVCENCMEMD
T3 sequence (P04234 22-105, stated change not applied, chain 2 of 2): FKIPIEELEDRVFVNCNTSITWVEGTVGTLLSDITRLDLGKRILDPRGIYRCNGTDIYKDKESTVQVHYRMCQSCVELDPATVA

B1: unilateral CD3/CEA/HER2 trispecific antibody 610 (other)
chain 1: EVQLVESGGGFVQAGESLTLSCTSSTLTFTPYRMAWYRQAPGKQRDLVADISSGDGRTTNYADFAKGRFTISRDNIKNTVFLRMTNLKPEDTAVYYCNTFVSFVGIARSWGQGTQVTVSSESKYGPPCPPCPAPEAAGGPSVFLFPPKPKDTLMISRTPEVTCVVVDVSQEDPEVQFNWYVDGVEVHNAKTKPREEQFNSTYRVVSVLTVLHQDWLNGKEYKCKVSNKGLPSSIEKTISKAKGQPREPQVYTLPPCQEEMTKNQVSLWCLVKGFYPSDIAVEWESNGQPENNYKTTPPVLDSDGSFFLYSRLTVDKSRWQEGNVFSCSVMHEALHNHYTQKSLSLSL
chain 2: EVKLLESGGGLVQPKGSLKLSCAASGFTFNTYAMNWVRQAPGKGLEWVARIRSKYNNYATYYADSVKDRFTISRDDSQSILYLQMNNLKTEDTAMYYCVRHGNFGNSYVSWFAYWGQGTLVTVSSASTKGPSVFPLAPCSRSTSESTAALGCLVKDYFPEPVTVSWNSGALTSGVHTFPAVLQSSGLYSLSSVVTVPSSSLGTKTYTCNVDHKPSNTKVDKRVESKYGPPCPPCPAPEAAGGPSVFLFPPKPKDTLMISRTPEVTCVVVDVSQEDPEVQFNWYVDGVEVHNAKTKPREEQFNSTYRVVSVLTVLHQDWLNGKEYKCKVSNKGLPSSIEKTISKAKGQPREPQVCTLPPSQEEMTKNQVSLSCAVKGFYPSDIAVEWESNGQPENNYKTTPPVLDSDGSFFLVSRLTVDKSRWQEGNVFSCSVMHEALHNRFTQKSLSLSL
chain 3: QVQLVQSGGGLVQAGGSLRLSCAASGRTFSSYAMAWFRQAPGKEREFVAAISWSGANIYVADSVKGRFTISRDNAKDTVYLQMNSLKPEDTAVYYCAVKLGFAPVEERQYDYWGQGTQVTVSSGGGGSGGGGSQAVVTQESALTTSPGETVTLTCRSSTGAVTTSNYANWVQEKPDHLFTGLIGGTNKRAPGVPARFSGSLIGDKAALTITGAQTEDEAIYFCALWYSNLWVFGGGTKVEIKRTVAAPSVFIFPPSDEQLKSGTASVVCLLNNFYPREAKVQWKVDNALQSGNSQESVTEQDSKDSTYSLSSTLTLSKADYEKHKVYACEVTHQGLSSPVTKSFNRGEC
B1: in assay [1], the Kd (in general, a measure of binding affinity in units of concentration) was 53.5 nM; the koff (commonly the first-order rate constant of dissociation) was determined as 0.00914 s⁻¹; the kon (commonly a measure of how fast the partners come together) was 171000 M⁻¹ s⁻¹. For the same molecule, in assay [2], the dissociation constant Kd was found to be 0.153 nM, the koff worked out at 8.05e-05 s⁻¹ and the kon turned out to be 525000 M⁻¹ s⁻¹. In addition, in assay [3], the equilibrium dissociation constant (Kd) turned out to be 1.47 nM, the off-rate (koff) amounted to 0.000402 s⁻¹ and the kon worked out at 273000 M⁻¹ s⁻¹.

B2: unilateral CD3/CEA/HER2 trispecific antibody 611 (other)
chain 1: QVQLVQSGGGLVQAGGSLRLSCAASGRTFSSYAMAWFRQAPGKEREFVAAISWSGANIYVADSVKGRFTISRDNAKDTVYLQMNSLKPEDTAVYYCAVKLGFAPVEERQYDYWGQGTQVTVSSGGGGSGGGGSEVKLLESGGGLVQPKGSLKLSCAASGFTFNTYAMNWVRQAPGKGLEWVARIRSKYNNYATYYADSVKDRFTISRDDSQSILYLQMNNLKTEDTAMYYCVRHGNFGNSYVSWFAYWGQGTLVTVSSASTKGPSVFPLAPCSRSTSESTAALGCLVKDYFPEPVTVSWNSGALTSGVHTFPAVLQSSGLYSLSSVVTVPSSSLGTKTYTCNVDHKPSNTKVDKRVESKYGPPCPPCPAPEAAGGPSVFLFPPKPKDTLMISRTPEVTCVVVDVSQEDPEVQFNWYVDGVEVHNAKTKPREEQFNSTYRVVSVLTVLHQDWLNGKEYKCKVSNKGLPSSIEKTISKAKGQPREPQVYTLPPCQEEMTKNQVSLWCLVKGFYPSDIAVEWESNGQPENNYKTTPPVLDSDGSFFLYSRLTVDKSRWQEGNVFSCSVMHEALHNHYTQKSLSLSL
chain 2: EVQLVESGGGFVQAGESLTLSCTSSTLTFTPYRMAWYRQAPGKQRDLVADISSGDGRTTNYADFAKGRFTISRDNIKNTVFLRMTNLKPEDTAVYYCNTFVSFVGIARSWGQGTQVTVSSESKYGPPCPPCPAPEAAGGPSVFLFPPKPKDTLMISRTPEVTCVVVDVSQEDPEVQFNWYVDGVEVHNAKTKPREEQFNSTYRVVSVLTVLHQDWLNGKEYKCKVSNKGLPSSIEKTISKAKGQPREPQVCTLPPSQEEMTKNQVSLSCAVKGFYPSDIAVEWESNGQPENNYKTTPPVLDSDGSFFLVSRLTVDKSRWQEGNVFSCSVMHEALHNRFTQKSLSLSL
chain 3: QAVVTQESALTTSPGETVTLTCRSSTGAVTTSNYANWVQEKPDHLFTGLIGGTNKRAPGVPARFSGSLIGDKAALTITGAQTEDEAIYFCALWYSNLWVFGGGTKVEIKRTVAAPSVFIFPPSDEQLKSGTASVVCLLNNFYPREAKVQWKVDNALQSGNSQESVTEQDSKDSTYSLSSTLTLSKADYEKHKVYACEVTHQGLSSPVTKSFNRGEC
On to B2, for which the Kd was determined as 105 nM in assay [1], 0.195 nM in assay [2] and 1.77 nM in assay [3]. Further, the koff in assay [1] turned out to be 0.0116 s⁻¹; in assay [2], 0.000108 s⁻¹; in assay [3] it was 0.000727 s⁻¹. The kon in assay [1] was 111000 M⁻¹ s⁻¹; in assay [2] it was 553000 M⁻¹ s⁻¹; in assay [3], 410000 M⁻¹ s⁻¹.

B3: CEA-BsAb (CD3 TA1-Fab x CEA VHH bispecific control antibody) (bispecific antibody, human IgG4 S228P, kappa, F234A L235A)
heavy: EVKLLESGGGLVQPKGSLKLSCAASGFTFNTYAMNWVRQAPGKGLEWVARIRSKYNNYATYYADSVKDRFTISRDDSQSILYLQMNNLKTEDTAMYYCVRHGNFGNSYVSWFAYWGQGTLVTVSSASTKGPSVFPLAPCSRSTSESTAALGCLVKDYFPEPVTVSWNSGALTSGVHTFPAVLQSSGLYSLSSVVTVPSSSLGTKTYTCNVDHKPSNTKVDKRVESKYGPPCPPCPAPEAAGGPSVFLFPPKPKDTLMISRTPEVTCVVVDVSQEDPEVQFNWYVDGVEVHNAKTKPREEQFNSTYRVVSVLTVLHQDWLNGKEYKCKVSNKGLPSSIEKTISKAKGQPREPQVYTLPPCQEEMTKNQVSLWCLVKGFYPSDIAVEWESNGQPENNYKTTPPVLDSDGSFFLYSRLTVDKSRWQEGNVFSCSVMHEALHNHYTQKSLSLSL
chain: EVQLVESGGGFVQAGESLTLSCTSSTLTFTPYRMAWYRQAPGKQRDLVADISSGDGRTTNYADFAKGRFTISRDNIKNTVFLRMTNLKPEDTAVYYCNTFVSFVGIARSWGQGTQVTVSSESKYGPPCPPCPAPEAAGGPSVFLFPPKPKDTLMISRTPEVTCVVVDVSQEDPEVQFNWYVDGVEVHNAKTKPREEQFNSTYRVVSVLTVLHQDWLNGKEYKCKVSNKGLPSSIEKTISKAKGQPREPQVCTLPPSQEEMTKNQVSLSCAVKGFYPSDIAVEWESNGQPENNYKTTPPVLDSDGSFFLVSRLTVDKSRWQEGNVFSCSVMHEALHNRFTQKSLSLSL
light: QAVVTQESALTTSPGETVTLTCRSSTGAVTTSNYANWVQEKPDHLFTGLIGGTNKRAPGVPARFSGSLIGDKAALTITGAQTEDEAIYFCALWYSNLWVFGGGTKVEIKRTVAAPSVFIFPPSDEQLKSGTASVVCLLNNFYPREAKVQWKVDNALQSGNSQESVTEQDSKDSTYSLSSTLTLSKADYEKHKVYACEVTHQGLSSPVTKSFNRGEC
In the case of B3, in assay [1], the koff came to 0.027 s⁻¹ and the kon turned out to be 3680 M⁻¹ s⁻¹. Further, in assay [3], the Kd was 1.64 nM, the koff is 0.00045 s⁻¹ and the kon was determined as 275000 M⁻¹ s⁻¹.
